T1: human IL-25 expressed with a C-terminal myc-myc-hexahistidine tag (human)
T1 construct: also called human IL-25-MMH; hIL-25-MMH
T1 chain: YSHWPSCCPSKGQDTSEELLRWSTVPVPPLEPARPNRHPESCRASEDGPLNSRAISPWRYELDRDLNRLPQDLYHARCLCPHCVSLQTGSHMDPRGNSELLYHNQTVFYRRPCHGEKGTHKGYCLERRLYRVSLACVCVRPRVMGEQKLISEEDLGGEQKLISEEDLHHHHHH

T2: monkey IL-25 expressed with a C-terminal myc-myc-hexahistidine tag (M. fascicularis (cynomolgus monkey))
T2 construct: also called monkey IL-25-MMH; MfIL-25-MMH
T2 chain: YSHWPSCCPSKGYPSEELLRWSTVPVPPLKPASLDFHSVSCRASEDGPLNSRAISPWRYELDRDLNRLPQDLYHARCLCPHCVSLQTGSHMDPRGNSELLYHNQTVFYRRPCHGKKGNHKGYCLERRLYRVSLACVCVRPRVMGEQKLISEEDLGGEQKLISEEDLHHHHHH


How the values were obtained:
[1] = biological target: T1, human IL-25 expressed with a C-terminal …; experiment: SPR Biacore, captured mAb, 25°C;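 as to 100 nM Human IL-25-MMH Bound (RU): biacore 4000 SPR with IL-25-MMH as analyte over purified anti-IL-25 antibodies, association and dissociation rates derived from fitting sensorgrams to a 1:1 binding model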;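 as to 100 nM Monkey IL-25-MMH Bound (RU): Real-time surface plasmon resonance on a Biacore 4000, with IL-25-MMH binding to purified anti-IL-25 antibodies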
Method: (§1) Equilibrium dissociation constants (KD values) for IL-25 binding to purified anti-IL-25 antibodies were determined using a real-time surface plasmon resonance biosensor assay on a Biacore 4000 instrument (GE Healthcare). […] All the IL-25 reagents were expressed with a C-terminal myc-myc-hexahistidine tag (referred to herein as “IL-25-MMH”). […] Kinetic association (kₐ) and dissociation (kd) rate constants were determined by fitting the real-time sensorgrams to a 1:1 binding model using Scrubber 2.0c curve fitting software.

[2] = biological target: T1, human IL-25 expressed with a C-terminal …; experiment: SPR Biacore, captured mAb, 37°C
Method: as §1

[3] = biological target: T2, monkey IL-25 expressed with a …; experiment: SPR Biacore, captured mAb, 25°C;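 as to 100 nM Human IL-25-MMH Bound (RU): biacore 4000 SPR with IL-25-MMH as analyte over purified anti-IL-25 antibodies, association and dissociation rates derived from fitting sensorgrams to a 1:1 binding model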;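 as to 100 nM Monkey IL-25-MMH Bound (RU): Real-time surface plasmon resonance on a Biacore 4000, with IL-25-MMH binding to purified anti-IL-25 antibodies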
Method: as §1

Row | 100 nM Human IL-25-MMH Bound (RU) [1] [RU] | Kd [1] [nM] | koff [1] [s⁻¹] | kon [1] [M⁻¹ s⁻¹] | t½ [1] [h] | 100 nM Human IL-25-MMH Bound (RU) [2] [RU] | Kd [2] [nM] | koff [2] [s⁻¹] | kon [2] [M⁻¹ s⁻¹] | t½ [2] [h] | 100 nM Monkey IL-25-MMH Bound (RU) [3] [RU] | Kd [3] [nM] | koff [3] [s⁻¹] | kon [3] [M⁻¹ s⁻¹] | t½ [3] [h] | Binder
1 | 49 | 0.228 | 0.000109 | 478000 | 1.77 | 55 | 0.149 | 0.00012 | 809000 | 1.6 | 54 | 0.186 | 7.77e-05 | 417000 | 2.48 | H4H10905P (antibody, human IgG4, V domains shown) VH: QVQLVQSGAEVKKPGTSVKVSCKASGYTFTNYGISWVRQAPGQGLEWLGWISAYNDNTDYAQKLQARVTMTTDTFTSTAYMDLRSLRSDDTAVYYCARVPITGTTSSFDFWGQGTLVTVSS VL: DIQMTQSPSSLSASVGDRVTISCRASQTIYSYLNWFQQKPGKAPKLLIYDASSLQSGVPSRFSGSGSGTHFTLTISSLQPEDFATYFCQQTYSTPLTFGGGTKVEIK
2 | 56 | ≤ 0.0142 | ≤ 1e-05 | 706000 | 19.2 | 74 | 0.0304 | 4.8e-05 | 1.58e+06 | 4.02 | 58 | ≤ 0.00965 | ≤ 1e-05 | 1.04e+06 | 19.2 | H4H10883P (antibody, human IgG4, V domains shown) VH: QVQLQESGPGLVKSSETLSLTCTVSGGSISSYYWSWIRQPPGKGLEWIGFIYYSGSTNYNPSLKSRVTFSVDTSKNHFSLKLNSVTATDTAVYYCARHYFDSGTYELGPFDYWGQGTLVTVSS VL: DIVMTQSPDSLAVSLGERATINCKSSQNILLTSSNKNYLTWYQQKPGQPPKLLIYWASIRESGVPDRFSGSGSGTDFTLTISSLQAEDVALYFCQQYYITPFTFGPGTKVDIK
3 | 34 | 0.279 | 7.25e-05 | 260000 | 2.65 | 46 | 0.128 | 7.78e-05 | 606000 | 2.48 | 39 | 0.199 | 6.83e-05 | 343000 | 2.82 | H4H10863P (antibody, human IgG4, V domains shown) VH: QVQLVQSGAEVKKPGASVKVSCKASGYTFSSYGISWVRQAPGQGLEWMGWISAYNDNTQYAQKFQGRVTMTTDTSTSTAYMELRSLRSDDTAVYYCARVPLQWFGESFDHWGQGTLVTVSS VL: DIQMTQSPSSLSASVGDRVTITCRASQDINNYLNWFQQKPGKAPKLLIFSTSSLQSGVPSRFSGSGSGTDFTLTISSLQSEDFATYYCQQTFITPLTFGGGTKVEIK
4 | 45 | 0.124 | 4.78e-05 | 386000 | 4.03 | 60 | 0.0944 | 5.93e-05 | 628000 | 3.25 | 51 | 0.218 | 7.18e-05 | 329000 | 2.68 | H4H10876P (antibody, human IgG4, V domains shown) VH: QVQLVQSGAEVKKPGASVKVSCKASEYTFSNYGISWVRQAPGQGLEWLGWIGAYSGFTKYAQKVQDRITMTTDASTTTAYMELRNLRSDDTAVYYCARVGTGTDSYFDFWGQGTLVTVSS VL: DIQMTQSPSSLSASVGDRVTITCRASQNINSHLNWYQQKPGKAPKLLIYTASSLQSGVPLRFSGSGSGTDFTLTISSLQPEDFGIYICQQTYITPLTFGGGTKVEIK
5 | 40 | 0.0883 | 6.5e-05 | 736000 | 2.97 | 47 | 0.0375 | 4.45e-05 | 1.19e+06 | 4.32 | 43 | 0.0485 | 6.74e-05 | 1.39e+06 | 2.85 | H4H10907P (antibody, human IgG4, V domains shown) VH: EVQLVESGGGLVQPGGSLRLSCAASGFTFSNYDIHWVRQVPGKGLEWISTIGSAGDTFYPGSVKGRFTISRENAKNSLYLQMNSLRAGDSAVYYCARGDNWNYVSWFFDLWGRGTLVTVSS VL: DIQLTQSPSFLSTSVGDRVTITCWASQDISSFLAWYQQKPGKAPKLLIYAASVLQSGVPSRFSGSGSGTEFTLTISSLQPEDFATYYCQQVNSYPITFGQGTRLEIK

Source: patent US20160083466A1 (Regeneron, published 2016)
